Article PMC3218234

Key:
Experiment in all cases: SPR
Conditions in all cases: remark: other sources report otherwise
[1] = biological target: human IgG1-Fc homodimer glycoform Fc-5 (Man3GlcNAc2) (human)
[2] = biological target: human IgG1-Fc homodimer glycoform Fc-1 (bisecting-GlcNAc-Man3GlcNAc2) (human)
[3] = biological target: wild type recombinant human IgG1-Fc homodimer carrying fucosylated complex type N-glycans (CT-Fc) (human)

B1: FcγRIIb, P31994 43-310 (receptor)
chain: TPAAPPKAVLKLEPQWINVLQEDSVTLTCRGTHSPESDSIQWFHNGNLIPTHTQPSYRFKANNNDSGEYTCQTGQTSLSDPVHLTVLSEWLVLQTPHLEFQEGETIVLRCHSWKDKPLVKVTFFQNGKSKKFSRSDPNFSIPQANHSHSGDYHCTGNIGYTLYSSKPVTITVQAP
modifications: not checked
Kd [1]: 2900 nM
Kd [2]: 2200 nM
Kd [3]: 2100 nM
